{"source": "paper PMC9215227", "about": "(Journal of Virology, 2022)", "binders": {"B1": {"name": "6×His-Flag-G3BP2 (natural protein)", "chain": "MVMEKPSPLLVGREFVRQYYTLLNKAPEYLHRFYGRNSSYVHGGVDASGKPQEAVYGQNDIHHKVLSLNFSECHTKIRHVDAHATLSDGVVVQVMGLLSNSGQPERKFMQTFVLAPEGSVPNKFYVHNDMFRYEDEVFGDSEPELDEESEDEVEEEQEERQPSPEPVQENANSGYYEAHPVTNGIEEPLEESSHEPEPEPESETKTEELKPQVEEKNLEELEEKSTTPPPAEPVSLPQEPPKAFSWASVTSKNLPPSGTVSSSGIPPHVKAPVSQPRVEAKPEVQSQPPRVREQRPRERPGFPPRGPRPGRGDMEQNDSDNRRIIRYPDSHQLFVGNLPHDIDENELKEFFMSFGNVVELRINTKGVGGKLPNFGFVVFDDSEPVQRILIAKPIMFRGEVRLNVEEKKTRAARERETRGGGDDRRDIRRNDRGPGGPRGIVGGGMMRDRDGRGPPPRGGMAQKLGSGRGTGQMEGRFTGQRR"}}, "biological_target": "NP of SARS-CoV-2 (catalog no. 40588-V07E; Sino Biological) (SARS-CoV-2, UniProt P0DTC9 1-419)", "test": "SPR; […], Biacore T200; 0.01 M HEPES pH 7.4, 0.15 M NaCl, 3 mM EDTA, 0.05% Tween 20; […]; 1:1 binding model", "conditions": "both partners purified"}
{"binder": "B1", "values": [{"measurement": "Kd", "value": 103, "unit": "nM"}]}
